Source: publication PMC6652007, “Metabolic engineering of Clostridium thermocellum for n-butanol production from cellulose” (Biotechnology for Biofuels, 2019)

Legend:
[1] = substrate: CC(=O)SCCNC(=O)CCNC(=O)[C@H](O)C(C)(C)COP(=O)(O)OP(=O)(O)OC[C@H]1O[C@@H](n2cnc3c(N)ncnc32)[C@H](O)[C@@H]1OP(=O)(O)O; assay: coupled Hbd assay, A340; format: biochemical, Thermoanaerobacterium thermosaccharolyticum; conditions: coupled with Hbd, 100 mM MOPS-KOH pH 7.5, 55 °C
Source text: coupled Hbd assay, A340 on Tt_Thl

[2] = substrate: NC(=O)C1=CN([C@@H]2O[C@H](COP(=O)(O)OP(=O)(O)OC[C@H]3O[C@@H](n4cnc5c(N)ncnc54)[C@H](O)[C@@H]3O)[C@@H](O)[C@H]2O)C=CC1; assay: NAD(P)H oxidation, A340; format: biochemical, Winmispira thermophila; conditions: crotonyl-CoA as substrate, 100 mM MOPS-KOH pH 7.5, 55 °C, varied: cofactor
Source text: (§1) NAD(P)H oxidation, A340 on St_Ter

[3] = substrate: NC(=O)C1=CN([C@@H]2O[C@H](COP(=O)(O)OP(=O)(O)OC[C@H]3O[C@@H](n4cnc5c(N)ncnc54)[C@H](OP(=O)(O)O)[C@@H]3O)[C@@H](O)[C@H]2O)C=CC1; assay: NAD(P)H oxidation, A340; format: biochemical, Winmispira thermophila; conditions: crotonyl-CoA as substrate, 100 mM MOPS-KOH pH 7.5, 55 °C, varied: cofactor
Source text: as §1

[4] = substrate: C/C=C/C(=O)SCCNC(=O)CCNC(=O)[C@H](O)C(C)(C)COP(=O)(O)OP(=O)(O)OC[C@H]1O[C@@H](n2cnc3c(N)ncnc32)[C@H](O)[C@@H]1OP(=O)(O)O; assay: NADH oxidation, A340; format: biochemical, Winmispira thermophila; conditions: 0.3 mM NADH, 100 mM MOPS-KOH pH 7.5, 55 °C
Source text: NADH oxidation, A340 on St_Ter

Protein | Km [2] [µM] | Vmax [2] [µmol/min/mg] | Km [3] [µM] | Vmax [3] [µmol/min/mg] | other results
Tt_Thl (Thermoanaerobacterium thermosaccharolyticum DSM 571) (protein, His-tagged (vector pD861-CH), codon-optimised, expressed in E. coli BL21(DE3)) MKEVVIASGVRTAVGKFGGTLLNVPAVDLGAVVIKEALKRANVKPEDVSEVIMGNVLQAGLGQNPARQAEIKAGIPVEVPAMTVNMVCGSGLRAVTLAAQAVMLGDADIVVAGGMENMSRAPYILNDARFGYRMNNGQLVDEMVYDGLTDVFNQYHMGITAENLAEKYGISREEQDEFAYRSQKLASEAISSGRFEDEIVPVIVPQKKGEPIEFKVDEHVRPNTTIEALAKLKPAFKKDGTVTAGNASGINDAAAAVVVMSKEKADELGIKPLATIKSFGYAGVDPSIMGIGPVYATRKALEKANLTVDDLDLIEANEAFAAQSLAVAKELKFNMDRVNVNGGAIAIGHPIGASGCRILVTLLYEMQKRNSHTGLATLCIGGGMGIAMVVER |  |  |  |  | Km ([1]; 0.3 mM NADH): 2400 ± 580 µM
Tt_Thl (Thermoanaerobacterium thermosaccharolyticum DSM 571; H156N/N223V/P222F/R133G) (protein, His-tagged (vector pD861-CH), codon-optimised, expressed in E. coli BL21(DE3)) MKEVVIASGVRTAVGKFGGTLLNVPAVDLGAVVIKEALKRANVKPEDVSEVIMGNVLQAGLGQNPARQAEIKAGIPVEVPAMTVNMVCGSGLRAVTLAAQAVMLGDADIVVAGGMENMSRAPYILNDARFGYGMNNGQLVDEMVYDGLTDVFNQYNMGITAENLAEKYGISREEQDEFAYRSQKLASEAISSGRFEDEIVPVIVPQKKGEPIEFKVDEHVRFVTTIEALAKLKPAFKKDGTVTAGNASGINDAAAAVVVMSKEKADELGIKPLATIKSFGYAGVDPSIMGIGPVYATRKALEKANLTVDDLDLIEANEAFAAQSLAVAKELKFNMDRVNVNGGAIAIGHPIGASGCRILVTLLYEMQKRNSHTGLATLCIGGGMGIAMVVER |  |  |  |  | Km ([1]; variant M2, NADH): 2600 ± 500 µM; Vmax ([1]; variant M2, NADH): 45.2 µmol/min/mg
Tt_Thl (Thermoanaerobacterium thermosaccharolyticum DSM 571; N153Y/S287K/V77Q) (protein, His-tagged (vector pD861-CH), codon-optimised, expressed in E. coli BL21(DE3)) MKEVVIASGVRTAVGKFGGTLLNVPAVDLGAVVIKEALKRANVKPEDVSEVIMGNVLQAGLGQNPARQAEIKAGIPQEVPAMTVNMVCGSGLRAVTLAAQAVMLGDADIVVAGGMENMSRAPYILNDARFGYRMNNGQLVDEMVYDGLTDVFYQYHMGITAENLAEKYGISREEQDEFAYRSQKLASEAISSGRFEDEIVPVIVPQKKGEPIEFKVDEHVRPNTTIEALAKLKPAFKKDGTVTAGNASGINDAAAAVVVMSKEKADELGIKPLATIKSFGYAGVDPKIMGIGPVYATRKALEKANLTVDDLDLIEANEAFAAQSLAVAKELKFNMDRVNVNGGAIAIGHPIGASGCRILVTLLYEMQKRNSHTGLATLCIGGGMGIAMVVER |  |  |  |  | Km ([1]; variant M1, NADH): 3300 ± 700 µM; Vmax ([1]; variant M1, NADH): 15.3 µmol/min/mg
St_Ter (Winmispira thermophila DSM 6578) (protein, His-tagged (vector pD861-CH), codon-optimised, expressed in E. coli BL21(DE3)) MVIKPMIRNNICMNAHPEGCRLFVDRQIDYVRQRGPLSSGPKNVLVVGSSGGYGLATRIAAGFGAGAATIGVYFEKEPSEKRTGTPGWYAARHFLKRAEAAGLKVHDINGDAFSFEVKAQVVDLIKKEYGTIDLFVYSLASGVRTDPVSGVTYRSALKPIGRTYTSKALDPLKREVVQAAIEPASEEEIEATVKVMGGEDWQLWVEALKEGGVLAEGAVTVAYSYIGPELTRPIYREGTIGKAKEHLEATAKTLDEALASVGGKAYVSVNKAVVTRASAVIPAVPLYLSILFTVMKAKGIHEGCIEQMYRMLAERLYAGGPVPVDDEGRIRMDDWEMREDVQREVAEVWERITTETLDTEADVDGYLTDFLNLHGFGFKEIDYEKEVDPREG | 30 ± 10 | 18.2 | 400 ± 100 | 12.2 | Km [4]: 30 ± 10 µM
St_Ter (Winmispira thermophila DSM 6578; E75A) (protein, His-tagged (vector pD861-CH), codon-optimised, expressed in E. coli BL21(DE3)) MVIKPMIRNNICMNAHPEGCRLFVDRQIDYVRQRGPLSSGPKNVLVVGSSGGYGLATRIAAGFGAGAATIGVYFAKEPSEKRTGTPGWYAARHFLKRAEAAGLKVHDINGDAFSFEVKAQVVDLIKKEYGTIDLFVYSLASGVRTDPVSGVTYRSALKPIGRTYTSKALDPLKREVVQAAIEPASEEEIEATVKVMGGEDWQLWVEALKEGGVLAEGAVTVAYSYIGPELTRPIYREGTIGKAKEHLEATAKTLDEALASVGGKAYVSVNKAVVTRASAVIPAVPLYLSILFTVMKAKGIHEGCIEQMYRMLAERLYAGGPVPVDDEGRIRMDDWEMREDVQREVAEVWERITTETLDTEADVDGYLTDFLNLHGFGFKEIDYEKEVDPREG | 600 ± 100 | 10.3 | 20 ± 10 | 68.1 | 
